Biological target: recombinant human TNFα (RDI) (human) (UniProt P01375)
Assay: cell-based or functional assay

Chain of recombinant human TNFα (RDI) (human) (P01375 77-233 limits assumed): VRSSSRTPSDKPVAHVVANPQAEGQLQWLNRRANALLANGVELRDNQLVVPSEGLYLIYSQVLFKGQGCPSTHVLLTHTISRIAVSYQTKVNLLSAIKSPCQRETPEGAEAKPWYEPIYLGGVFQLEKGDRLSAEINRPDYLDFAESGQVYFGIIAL

B1: MMP7 (enzyme, UniProt P09237 95-267, looked up, species assumed)
Matrilysin: YSLFPNSPKWTSKVVTYRIVSYTRDLPHITVDRLVSKALNMWGKEIPLHFRKVVWGTADIMIGFARGAHGDSYPFDGPGNTLAHAFAPGTGLGGDAHFDEDERWTDGSSLGINFLYAATHELGHSLGMGHSSDPNAVMYPTYGNGDPQNFKLSQDDIKGIQKLYGKRSNSRKK
Which L929 cell survival at the dilution equivalent to ~600 pg/ml TNFα (reference standard: 10% survival) does the source give for B1 here?
The L929 cell survival at the dilution equivalent to ~600 pg/ml TNFα (reference standard: 10% survival) was 40 % survival.

What about the log reduction in TNFα activity at the 50% survival level, L929 cytotoxicity bioassay after overnight digestion of the same binder?
Its log reduction in TNFα activity at the 50% survival level, L929 cytotoxicity bioassay after overnight digestion is 1.22 log.

Source: US20050074865A1
